Source: paper PMC13456619, “The (Glg)ABCs of cyanobacteria: modelling of glycogen synthesis and functional divergence of glycogen synthases in Synechocystis sp. PCC 6803” (Febs Letters, 2026)

Columns and labels:
purified protein [1] = substrate: Nc1ncnc2c1ncn2[C@@H]1O[C@H](COP(=O)(O)OP(=O)(O)O[C@H]2O[C@H](CO)[C@@H](O)[C@H](O)[C@H]2O)[C@@H](O)[C@H]1O; assay: purified protein; format: biochemical, Synechocystis sp. PCC 6803; conditions: 1 mg/mL bovine glycogen primer, 12 mM MgCl2, 50 mM HEPES-NaOH pH 8.0, 30 °C, no GlgB
purified protein [2] = substrate: Nc1ncnc2c1ncn2[C@@H]1O[C@H](COP(=O)(O)OP(=O)(O)O[C@H]2O[C@H](CO)[C@@H](O)[C@H](O)[C@H]2O)[C@@H](O)[C@H]1O; assay: purified protein; format: biochemical, Escherichia coli; conditions: 1 nM enzyme, 1 mg/mL bovine glycogen primer, 12 mM MgCl2, 50 mM HEPES-NaOH pH 8.0, 30 °C, no GlgB

Row | Protein | Km (purified protein [1]) [µM] | Km (purified protein [2]) [µM]
1 | GlgA1 (Synechocystis sp. PCC 6803 substr. Kazusa) (protein, full-length, N-terminal His tag, expressed in E. coli, IMAC and anion exchange) MKILFVAAEVSPLAKVGGMGDVVGSLPKVLHQLGHDVRVFMPYYGFIGDKIDVPKEPVWKGEAMFQQFAVYQSYLPDTKIPLYLFGHPAFDSRRIYGGDDEAWRFTFFSNGAAEFAWNHWKPEIIHCHDWHTGMIPVWMHQSPDIATVFTIHNLAYQGPWRGLLETMTWCPWYMQGDNVMAAAIQFANRVTTVSPTYAQQIQTPAYGEKLEGLLSYLSGNLVGILNGIDTEIYNPAEDRFISNVFDADSLDKRVKNKIAIQEETGLEINRNAMVVGIVARLVEQKGIDLVIQILDRFMSYTDSQLIILGTGDRHYETQLWQMASRFPGRMAVQLLHNDALSRRVYAGADVFLMPSRFEPCGLSQLMAMRYGCIPIVRRTGGLVDTVSFYDPINEAGTGYCFDRYEPLDCFTAMVRAWEGFRFKADWQKLQQRAMRADFSWYRSAGEYIKVYKGVVGKPEELSPMEEEKIAELTASYR | 152 ± 3.6 | 
2 | GlgA2 (Synechocystis sp. PCC 6803 substr. Kazusa) (protein, full-length in pET28a, N-terminal His tag, expressed in E. coli, IMAC and anion exchange) MYIVQIASECAPVIKAGGLGDVIYGLSRELELRGHCVELILPMYDCMRYDHIWGLHDAYRNLEVPWYGSSIFCDVFCGWVHGRLCFFIQPKSSDNFFNRGHYYGALDDHMRFAFFSKAAMEFLLRSNKRPDIIHCHDWQTGLVPVLLYEIYRFHGMDHQRVCYTIHNFKHQGIAGANILHATGLNNDSYYFSYDRLQDNFNPNAINFMKGGIVYSNYVNTVSPHHAWEARFSDISCGLGHTLEIHQQKFGGILNGLDYEVWNPEIDPLLASNFSVKTFGDKAKNKQALRERLLLETDDKKPMLCFIGRLDGQKGVHLVHHSIYYALSQGAQFVLLGSATEPNLSKWFWHEKQHLNDNPNVHLELGFDEELAHLIYGAADIIVVPSNYEPCGLTQMIGLRYGAVPVVRGVGGLVNTVFDRDYDQNHPPEKRNGFVFYQPDEYALETALSRAIALYKDDPVAFKTLALQGMAYDYSWNKPGLQYVEAYEYIRA | 219 ± 9.9 | 
3 | GlgA^ E.coli (Escherichia coli K-12) (protein, full-length in pET28a, N-terminal His tag, expressed in E. coli, IMAC and anion exchange) MQVLHVCSEMFPLLKTGGLADVIGALPAAQIADGVDARVLLPAFPDIRRGVTDAQVVSRRDTFAGHITLLFGHYNGVGIYLIDAPHLYDRPGSPYHDTNLFAYTDNVLRFALLGWVGAEMASGLDPFWRPDVVHAHDWHAGLAPAYLAARGRPAKSVFTVHNLAYQGMFYAHHMNDIQLPWSFFNIHGLEFNGQISFLKAGLYYADHITAVSPTYAREITEPQFAYGMEGLLQQRHREGRLSGVLNGVDEKIWSPETDLLLASRYTRDTLEDKAENKRQLQIAMGLKVDDKVPLFAVVSRLTSQKGLDLVLEALPGLLEQGGQLALLGAGDPVLQEGFLAAAAEYPGQVGVQIGYHEAFSHRIMGGADVILVPSRFEPCGLTQLYGLKYGTLPLVRRTGGLADTVSDCSLENLADGVASGFVFEDSNAWSLLRAIRRAFVLWSRPSLWRFVQRQAMAMDFSWQVAAKSYRELYYRLK |  | 275 ± 17
